Experimental data as given in patent publication US20220153869A1 (TAVOTEK BIOTHERAPEUTICS HONG KONG, published 2022).
Numbering of substitutions follows the chain as printed.

B1: IGF2_MMP2_TrasVH1VL1 x BevaVH3VL1_IgG1_LS_E345R uncut (bispecific antibody)
heavy 1: GILEECCFRSCDLALLETYCAGGGGSPLGLAGGGGGSQVQLVQSGAEVKKPGSSVKVSCKASGFNIKDTYIHWVRQAPGQGLEWMGRIYPTNGYTRYAQKFQGRATITADESTSTAYMEVSSLRSEDTAVYYCSRWGGDGFYAMDYWGQGTLVTVSSASTKGPSVFPLAPSSKSTSGGTAALGCLVKDYFPEPVTVSWNSGALTSGVHTFPAVLQSSGLYSLSSVVTVPSSSLGTQTYICNVNHKPSNTKVDKKVEPKSCDKTHTCPPCPAPELLGGPSVFLFPPKPKDTLMISRTPEVTCVVVDVSHEDPEVKFNWYVDGVEVHNAKTKPREEQYNSTYRVVSVLTVLHQDWLNGKEYKCKVSNKALPAPIEKTISKAKGQPRRPQVYTLPPSRDELTKNQVSLTCLVKGFYPSDIAVEWESNGQPENNYKTTPPVLDSDGSFLLYSKLTVDKSRWQQGNVFSCSVLHEALHSHYTQKSLSLSPGK
light 1: AYRPSETLCGGELVDTLQFVCGDRGFAFGGGGSPLGLAGGGGGSDIVMTQTPLSLPVTPGEPASISCRASQDVNTAVAWYLQKPGQSPQLLIYSASFRYTGVPDRFSGSGSGTDFTLKISRVEAEDVGVYYCQQHYTTPPTFGQGTKVEIKRTVAAPSVFIFPPSDEQLKSGTASVVCLLNNFYPREAKVQWKVDNALQSGNSQESVTEQDSKDSTYSLSSTLTLSKADYEKHKVYACEVTHQGLSSPVTKSFNRGEC
heavy 2: GILEECCFRSCDLALLETYCAGGGGSPLGLAGGGGGSQVQLVQSGAEVKKPGSSVKVSCKASGYTFTNYGMNWVRQAPGQGLEWMGWINTYTGEPTYAQKFQGRVTITADESTSTAYMELSSLRSEDTAVYYCAKYPHYYGSSHWYFDVWGQGTLVTVSSASTKGPSVFPLAPSSKSTSGGTAALGCLVKDYFPEPVTVSWNSGALTSGVHTFPAVLQSSGLYSLSSVVTVPSSSLGTQTYICNVNHKPSNTKVDKKVEPKSCDKTHTCPPCPAPELLGGPSVFLFPPKPKDTLMISRTPEVTCVVVDVSHEDPEVKFNWYVDGVEVHNAKTKPREEQYNSTYRVVSVLTVLHQDWLNGKEYKCKVSNKALPAPIEKTISKAKGQPRRPQVYTLPPSRDELTKNQVSLTCLVKGFYPSDIAVEWESNGQPENNYKTTPPVLDSDGSFFLYSRLTVDKSRWQQGNVFSCSVLHEALHSHYTQKSLSLSPGK
light 2: not shown
B2: Tras x Beva_IgG1_LS (bispecific antibody)
heavy 1: not shown
light 1: not shown
heavy 2: EVQLVESGGGLVQPGGSLRLSCAASGYTFTNYGMNWVRQAPGKGLEWVGWINTYTGEPTYAADFKRRFTFSLDTSKSTAYLQMNSLRAEDTAVYYCAKYPHYYGSSHWYFDVWGQGTLVTVSSASTKGPSVFPLAPSSKSTSGGTAALGCLVKDYFPEPVTVSWNSGALTSGVHTFPAVLQSSGLYSLSSVVTVPSSSLGTQTYICNVNHKPSNTKVDKKVEPKSCDKTHTCPPCPAPELLGGPSVFLFPPKPKDTLMISRTPEVTCVVVDVSHEDPEVKFNWYVDGVEVHNAKTKPREEQYNSTYRVVSVLTVLHQDWLNGKEYKCKVSNKALPAPIEKTISKAKGQPREPQVYTLPPSRDELTKNQVSLTCLVKGFYPSDIAVEWESNGQPENNYKTTPPVLDSDGSFFLYSRLTVDKSRWQQGNVFSCSVLHEALHSHYTQKSLSLSPGK
light 2: not shown
notes: also called HER2 x VEGF bispecific antibody
B3: Tras x Beva_IgG1_LS_E345R (bispecific antibody)
heavy 1: not shown
light 1: not shown
heavy 2: B2 heavy 2 with E351R
light 2: not shown
B4: TrasVH1VL1 x BevaVH3VL1_IgG1_LS (bispecific antibody)
heavy 1: QVQLVQSGAEVKKPGSSVKVSCKASGFNIKDTYIHWVRQAPGQGLEWMGRIYPTNGYTRYAQKFQGRATITADESTSTAYMEVSSLRSEDTAVYYCSRWGGDGFYAMDYWGQGTLVTVSSASTKGPSVFPLAPSSKSTSGGTAALGCLVKDYFPEPVTVSWNSGALTSGVHTFPAVLQSSGLYSLSSVVTVPSSSLGTQTYICNVNHKPSNTKVDKKVEPKSCDKTHTCPPCPAPELLGGPSVFLFPPKPKDTLMISRTPEVTCVVVDVSHEDPEVKFNWYVDGVEVHNAKTKPREEQYNSTYRVVSVLTVLHQDWLNGKEYKCKVSNKALPAPIEKTISKAKGQPREPQVYTLPPSRDELTKNQVSLTCLVKGFYPSDIAVEWESNGQPENNYKTTPPVLDSDGSFLLYSKLTVDKSRWQQGNVFSCSVLHEALHSHYTQKSLSLSPGK
light 1: DIVMTQTPLSLPVTPGEPASISCRASQDVNTAVAWYLQKPGQSPQLLIYSASFRYTGVPDRFSGSGSGTDFTLKISRVEAEDVGVYYCQQHYTTPPTFGQGTKVEIKRTVAAPSVFIFPPSDEQLKSGTASVVCLLNNFYPREAKVQWKVDNALQSGNSQESVTEQDSKDSTYSLSSTLTLSKADYEKHKVYACEVTHQGLSSPVTKSFNRGEC
heavy 2: QVQLVQSGAEVKKPGSSVKVSCKASGYTFTNYGMNWVRQAPGQGLEWMGWINTYTGEPTYAQKFQGRVTITADESTSTAYMELSSLRSEDTAVYYCAKYPHYYGSSHWYFDVWGQGTLVTVSSASTKGPSVFPLAPSSKSTSGGTAALGCLVKDYFPEPVTVSWNSGALTSGVHTFPAVLQSSGLYSLSSVVTVPSSSLGTQTYICNVNHKPSNTKVDKKVEPKSCDKTHTCPPCPAPELLGGPSVFLFPPKPKDTLMISRTPEVTCVVVDVSHEDPEVKFNWYVDGVEVHNAKTKPREEQYNSTYRVVSVLTVLHQDWLNGKEYKCKVSNKALPAPIEKTISKAKGQPREPQVYTLPPSRDELTKNQVSLTCLVKGFYPSDIAVEWESNGQPENNYKTTPPVLDSDGSFFLYSRLTVDKSRWQQGNVFSCSVLHEALHSHYTQKSLSLSPGK
light 2: not shown
B5: TrasVH1VL1 x BevaVH3VL1_IgG1_LS_E345R (bispecific antibody)
heavy 1: B4 heavy 1 with E348R
light 1: B4 light 1
heavy 2: B4 heavy 2 with E351R
light 2: not shown
B6: Beva_IgG1_LS (antibody, V domains shown)
VH: EVQLVESGGGLVQPGGSLRLSCAASGYTFTNYGMNWVRQAPGKGLEWVGWINTYTGEPTYAADFKRRFTFSLDTSKSTAYLQMNSLRAEDTAVYYCAKYPHYYGSSHWYFDVWGQGTLVTVSS
VL: DIQMTQSPSSLSASVGDRVTITCSASQDISNYLNWYQQKPGKAPKVLIYFTSSLHSGVPSRFSGSGSGTDFTLTISSLQPEDFATYYCQQYSTVPWTFGQGTKVEIKR
notes: also called EAC291/EAC207

Tests used:
[1] = biological target: T1, HER2 expressed on SK-BR-3 cell surface (UniProt P04626 23-1255, limits assumed); experiment: flow cytometry on SK-BR-3 cells; masked antibody, not digested
T1 construct: whole, on cells; also called cell surface HER2; HER2-expressing SK-BR-3 cells
Text: (§1) Flow cytometry-based binding assays were also employed to evaluate the binding to HER2 expressed on cell surface by exemplary HER2 x VEGF bispecific antibodies with or without IGF2 masking domain (FIG. 10). In these assays, increasing concentrations of exemplary HER2 x VEGF bispecific antibodies were applied to HER2-expressing SK-BR-3 cells and their bindings to cell surface HER2 were detected by PE-conjugated anti-human secondary antibody by MacsQuant flow cytometer.

[2] = biological target: T2, recombinant human HER2 (R&D systems) (human, UniProt P04626 23-652); experiment: ELISA, recombinant human HER2 coated; masked antibody, not digested
Description: (§2) ELISA-based binding assays were employed to evaluate the binding to HER2 by exemplary HER2 x VEGF bispecific antibodies with or without IGF2 masking domain (FIG. 9). In these assays, 1 μg/mL recombinant human HER2 (R&D systems) were coated on ELISA plate. Increasing concentrations of exemplary HER2 x VEGF bispecific antibodies were applied on the plate and their bindings to the recombinant human HER2 were detected by HRP-conjugated anti-human IgG secondary antibody.

[3] = biological target: recombinant human PD-L1 (R&D systems) (human, UniProt Q9NZQ7 19-239); experiment: ELISA, recombinant human PD-L1 coated at 1 ug/mL, anti-human IgG-HRP
Description: ELISA-based binding assays were employed to evaluate the binding to PD-L1 by these bispecific antibodies (FIG. 31A). In these assays, 1 μg/mL recombinant human PD-L1 (R&D systems) were coated on ELISA plate. Increasing concentrations of exemplary HER2 x VEGF bispecific antibodies with ScFv of an anti-PD-L1 antibody as a homing domain were applied on the plate and their bindings to the recombinant human PD-L1 were detected by HRP-conjugated anti-human IgG secondary antibody.

[4] = biological target: T1, HER2 expressed on SK-BR-3 cell surface; experiment: flow cytometry on SK-BR-3 cells; unmasked reference of the comparison (higher potency than uncut)
Text: as §1

[5] = biological target: T2, recombinant human HER2 (R&D systems); experiment: ELISA, recombinant human HER2 coated; unmasked reference of the comparison (higher potency than uncut)
Description: as §2

[6] = biological target: T1, HER2 expressed on SK-BR-3 cell surface; experiment: flow cytometry on SK-BR-3 cells, PE anti-human secondary
Text: as §1

[7] = biological target: T2, recombinant human HER2 (R&D systems); experiment: ELISA, recombinant human HER2 coated at 1 ug/mL, anti-human IgG-HRP
Description: as §2

recombinant human PD-L1 (R&D systems), sequence (Q9NZQ7 19-239 limits assumed): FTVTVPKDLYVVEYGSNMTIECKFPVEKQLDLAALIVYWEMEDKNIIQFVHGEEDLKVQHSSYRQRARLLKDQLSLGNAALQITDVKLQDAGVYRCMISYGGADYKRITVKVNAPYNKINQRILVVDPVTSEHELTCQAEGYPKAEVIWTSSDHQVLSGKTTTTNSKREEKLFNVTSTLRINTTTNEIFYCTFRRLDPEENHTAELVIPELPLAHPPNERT

| Binder | binding result [3] | binding result [4] | binding result [5] | further results |
| --- | --- | --- | --- | --- |
| B1 |  |  |  | binding result [1]: binds; binding result [2]: binds |
| B2 | no binding |  |  |  |
| B3 | no binding |  |  |  |
| B4 |  | binds | binds |  |
| B5 |  | binds | binds |  |
| B6 |  |  |  | binding result [6]: no binding; binding result [7]: no binding |
